For experiment [1], the target named is murine GITR expressed on cells (mouse) (UniProt O35714). In words: cell-based or functional assay.
Experiment [2] shares this target. Description: flow cytometry after treatment of mice with mGITRL-FP IgG2a; competitor DTA-1 as stain.

murine GITR expressed on cells (mouse), sequence (O35714 20-228): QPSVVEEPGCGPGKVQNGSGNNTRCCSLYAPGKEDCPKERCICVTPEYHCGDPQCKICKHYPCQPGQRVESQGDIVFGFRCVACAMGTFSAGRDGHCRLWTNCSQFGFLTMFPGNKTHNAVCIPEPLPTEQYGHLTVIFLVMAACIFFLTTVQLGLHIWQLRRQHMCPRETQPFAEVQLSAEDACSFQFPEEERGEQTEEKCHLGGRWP

In experiment [1], mGITRL-FP mIgG2a (Fc fusion) had an EC50, GITR-dependent NFκB reporter gene cell assay (Jurkat mGITR) of 0.05 nM and a fold potency against DTA-1, GITR-dependent NFκB reporter gene cell assay of 50 fold. For the same substance, in experiment [2], the reduction in GITR MFI (DTA-1 staining) on Tregs was over 75%.

For the substance DTA-1 anti-GITR antibody, in experiment [1], the EC50, GITR-dependent NFκB reporter gene cell assay (Jurkat mGITR) worked out at 2.31 nM.

The values are drawn from patent US20170073386A1.
